# Data as given in IntAct's records for PubMed 20129058.
# B1: Replicative helicase loader DnaC (Escherichia coli (strain K12)), P0AEF0 (parent)
# chain: MKNVGDLMQRLQKMMPAHIKPAFKTGEELLAWQKEQGAIRSAALERENRAMKMQRTFNRSGIRPLHQNCSFENYRVECEGQMNALSKARQYVEEFDGNIASFIFSGKPGTGKNHLAAAICNELLLRGKSVLIITVADIMSAMKDTFRNSGTSEEQLLNDLSNVDLLVIDEIGVQTESKYEKVIINQIVDRRSSSKRPTGMLTNSNMEEMTKLLGERVMDRMRLGNSLWVIFNWDSYRSRVTGKEY
# Variants of: B1
# Conditions: with dnab_ecoli dnaB
row,Variant,effect of a mutation on the interaction
1,MKNVGDLMQRQQKMMPAHIKPAFKTGEELLAWQKEQGAIRSAALERENRAMKMQRTFNRSGIRPLHQNCSFENYRVECEGQMNALSKARQYVEEFDGNIASFIFSGKPGTGKNHLAAAICNELLLRGKSVLIITVADIMSAMKDTFRNSGTSEEQLLNDLSNVDLLVIDEIGVQTESKYEKVIINQIVDRRSSSKRPTGMLTNSNMEEMTKLLGERVMDRMRLGNSLWVIFNWDSYRSRVTGKEY [L11Q],disrupting interaction
